Experimental data published in patent US20160000910A1.

Target: biotinylated Aβ1-28 peptide
Assay: ELISA, biotinylated peptide (Anaspec) on streptavidin plate, 10 µg/ml mAb
Details: remark: other sources report otherwise

Chain of biotinylated Aβ1-28 peptide (chain, as listed by the source): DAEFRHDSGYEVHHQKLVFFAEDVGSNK

O.D. after background subtraction (mean): 0.53 O.D.
B1: mouse monoclonal antibody ACI-11-Ab-9 (antibody, V domains shown)
VL: QAVVTQESALTTSPGGTVILTCRSSTGAVTTSNYANWVQEKPDHLFTGLIGGTSNRAPGVPVRFSGSLIGDKAALTITGAQTEDDAMYFCALWYSTHYVFGGGTKVTVL
VH: QVQLQQSDAELVKPGASVKISCKVSGYTFTDHTIHWMKQRPEQGLEWIGYIYPRDGSTKYNEKFKGKATLTADKSSSTAYMQLNSLTSEDSAVYFCARDYGYAFDYWGQGTTLTVSS
modifications: here or on the partner: biotinylated (position not given)
